Data from article PMC6354225, “Synthesis and Preclinical Characterization of the PSMA-Targeted Hybrid Tracer PSMA-I&F for Nuclear and Fluorescence Imaging of Prostate Cancer” (Journal of Nuclear Medicine, 2019).

Columns and labels:
[1] = set-up: method as in PMID 28721307; conditions: cited from earlier work
[2] = set-up: method as in earlier work; conditions: cited from earlier work
LNCaP tumors = conditions: in vivo; cited from earlier work
[3] = test system: tumor xenograft (PC-3 PIP); conditions: in vivo; cited from earlier work
[4] = test system: PSMA-positive LNCaP cells; experiment: Fluorescence microscopy of ligand internalization, PSMA-positive cells; assay type: cell-based; conditions: 25 nM, 60 min, 37°C
Procedure: Competitive binding experiments (IC50) were performed in analogy to a previously published protocol ([38]) using LNCaP cells and (^125I-BA)KuE as a standard radioligand. Internalization kinetics of ^68Ga-PSMA-I&F and ^177Lu-PSMA-I&F (2 nM) were investigated in dual-tracer internalization assays using PSMA-expressing LNCaP cells and (^125I-BA)KuE (0.1 nM) as an internal reference. To differentiate between membrane-bound and internalized activity, an acid wash (50 mM NaOAc in saline, pH 4.5) was performed prior to lysis of the cells (1N NaOH) and quantification of internalized activity (lysate) using a γ-counter. […] For fluorescence microscopy, PSMA-positive LNCaP and PSMA-negative PC3 cells (seeded on glass cover slips) were incubated with the respective PSMA-I&F analog (100 or 25 nM) in the absence (total binding/internalization) or presence (nonspecific binding/internalization) of 10 μM 2-PMPA at 37 °C for 5 or 60 min. […] Ligand internalization was visualized using a Keyence BZ-9000 fluorescence microscope equipped with Cy5 (620/60 nm excitation, 700/75 nm emission), DAPI-BP (370/50 nm excitation, 447/60 nm emission), and GFP-BP (472.5/30 nm excitation, 520/35 nm emission) filters.

LNCaP xenografts = experiment: Intraoperative / ex vivo fluorescence imaging of LNCaP xenografts; assay type: in vivo, CB17 SCID mice; conditions: 2 nmol, 1 h after injection, Dino-Lite microscope and Firefly laparoscope
Procedure: Fluorescence imaging (intraoperative/ex vivo) of LNCaP xenografts in CB17 SCID mice (1 h after injection) was performed using 2 different instrumental setups: a handheld digital microscope for Cy5 (Dino-Lite Edge AM4115T-DFRW; AnMo Electronics Corp.) and DinoCapture 2.0 software (AnMo Electronics Corp.); and a 0°Firefly laparoscope that is compatible with the surgical robotic da Vinci Si system (Intuitive Surgical Inc.), using a fluid light cable for target illumination (495 FR; KARL STORZ Endoskope GmbH&Co.KG) and a bandpass filter (Edmund Optics Inc.) to isolate the Cy5 emission. Images were captured from the unprocessed Firefly video feed. For instrumental details see supplemental data.

[5] = target: human serum albumin (HSA) (Homo sapiens, UniProt P02768); experiment: HSA binding by gradient high-performance liquid chromatography method; assay type: in vitro ADME; conditions: plasma
Procedure: The lipophilicity of ^68Ga- and ^177Lu-PSMA-I&F was determined via a modified shake-flask method as previously described ([38]). Plasma protein binding of both tracers was determined using 2 alternative methods, that is, incubation in fresh human plasma and subsequent ultrafiltration ([20]) and a previously established gradient high-performance liquid chromatography method for the quantification of human serum albumin (HSA) binding ([41],[42]).

human serum albumin (HSA), sequence (P02768 25-609): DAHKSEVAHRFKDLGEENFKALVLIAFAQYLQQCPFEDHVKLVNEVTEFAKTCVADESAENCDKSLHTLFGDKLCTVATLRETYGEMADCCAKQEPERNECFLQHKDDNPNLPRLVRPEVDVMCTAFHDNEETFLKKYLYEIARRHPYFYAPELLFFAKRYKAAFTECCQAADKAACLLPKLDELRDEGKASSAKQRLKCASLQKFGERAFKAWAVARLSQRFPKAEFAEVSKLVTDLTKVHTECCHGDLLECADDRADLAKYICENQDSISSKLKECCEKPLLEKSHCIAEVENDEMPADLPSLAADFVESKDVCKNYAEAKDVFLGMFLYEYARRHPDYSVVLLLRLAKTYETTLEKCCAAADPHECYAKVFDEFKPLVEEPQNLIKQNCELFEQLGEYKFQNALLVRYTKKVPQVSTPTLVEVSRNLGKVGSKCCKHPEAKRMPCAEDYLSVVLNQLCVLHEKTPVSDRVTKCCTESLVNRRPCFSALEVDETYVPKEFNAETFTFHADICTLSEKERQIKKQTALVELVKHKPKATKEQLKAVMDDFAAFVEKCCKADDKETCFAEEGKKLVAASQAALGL

Compound: CC1(C)C(/C=C/C=C/C=C/C=C2\N(CCCCS(=O)(=O)O)c3ccc4ccccc4c3C2(C)C)=[N+](CCCCS(=O)(=O)[O-])c2ccc3ccccc3c21 [ICG, indocyanine green]
- brightness (quantum yield) [1]: 0.3%

Compound: CN1/C(=C/C=C/C=C/C2=[N+](CCCCCC(=O)O)c3ccc(S(=O)(=O)[O-])cc3C2(C)C)C(C)(C)c2cc(S(=O)(=O)O)ccc21 [Sulfo-Cy5]
- brightness [2]: 51 × 10^3 M^−1⋅cm^−1

Compound: IRDye800CW-^68Ga-HBED-CC-KuE
- tumor-to-blood ratio (LNCaP tumors): 4.5
- tumor-to-intestines ratio (LNCaP tumors): 5.7
- tumor-to-liver ratio (LNCaP tumors): 4.9
- tumor-to-muscle ratio (LNCaP tumors): 4.8

Compound: ^111In-DOTA-Lys(Nε-IRDye800CW)-Sub-KuE
- Increase of tracer uptake in the excretion organs and the tumor xenograft (PC-3 PIP) compared with parent compound [3]: 2-4 factor
- tumor-to-blood ratio [3]: 1.4
- tumor-to-intestines ratio [3]: 7.7
- tumor-to-liver ratio [3]: 5.8
- tumor-to-muscle ratio [3]: 11.6

Compound: C[N+]1=C(/C=C/C=C/C=C2/N(CCCCCC(=O)NCCCC[C@@H](NC(=O)CCC(C(=O)O)N3CCN(CC(=O)O)CCN(CC(=O)O)CCN(CC(=O)O)CC3)C(=O)N[C@H](Cc3ccc(O)c(I)c3)C(=O)N[C@H](Cc3ccc(O)c(I)c3)C(=O)N[C@H](CCCCNC(=O)CCCCCCC(=O)NCCCC[C@H](NC(=O)N[C@@H](CCC(=O)O)C(=O)O)C(=O)O)C(=O)O)c3ccc(S(=O)(=O)O)cc3C2(C)C)C(C)(C)c2cc(S(=O)(=O)[O-])ccc21 (stereo partly drawn) [PSMA-I&F, DOTAGA-D-Lys(Nε-Sulfo-Cy5)-D-(3-iodo)Tyr-D-(3-iodo)Tyr-D-Lys(Nε-Sub-KuE)]
- Comparative ligand internalization by fluorescence microscopy [4]: highly efficient and identical ligand internalization
- Intraoperative and ex vivo fluorescence detection of tumor xenograft (LNCaP xenografts): sensitive in vivo detection of the PSMA-I&F–positive tumor xenograft with good contrast to the surrounding tissue
- fraction unbound [5]: 0.017
